The results in this text go back to patent publication US20210087270A1 (INNATE PHARMA, published 2021).

The target of assay [1] is T1, human KIR3DL2 (CD158k), wild type, at the cell surface (human, UniProt P43630 22-455).
T1 construct: also called WTaKIR3DL2; un-mutated wild type KIR3DL2
Put plainly: fluoro-microscopy on HUT78 cells, 10 µg/ml, goat anti-mouse Alexa594. As for the experimental part: Internalization of antibodies 10F6, 2B12, 18C6, 9E10, 10G5, 13H1, 4B5, 5H1, 1E2, 1C3 and 20E9, as well as antibody AZ158 (an anti-domain 0 mAb as comparator) and other anti-D1 antibodies as disclosed in PCT applications WO2014/044686 and WO2014/044681 were assessed by fluoro-microscopy using the HUT78 SS cell line.
Hut-78 cells were incubated during 1H at 4° C. with 10 μg/ml of the different antibodies. After this incubation cells were either fixed (t=OH) or incubated for 2H at 37° C. Cells incubated for 2H were then fixed and stained. Antibodies were stained using goat anti-mouse antibodies coupled to Alexa594 (Invitrogen, A11032). […] Pictures were acquired using an Apotome device (Zeiss) and analyzed using the Axiovision software.

The next assay addresses T2, KIR3DL1 (CD158e1) (UniProt P43629 22-444, limits assumed).
T2 construct: also called closely related KIR3DL1
Put plainly: hybridoma screening (flow cytometry, incl. HEK-293T/KIR3DL1 Domain 0-eGFP). As for the experimental part:
Antibodies which bind KIR3DL2 but not closely related KIR3DL1 were generated by immunizing mice with recombinant KIR3DL2-Fc fusion protein, described in US patent publication number US-2015-0232556-A1. Supernatant (SN) of the growing hybridomas were tested by flow cytometry on Sezary Syndrome cell lines (HUT78, COU-L) and HEK-293T/KIR3DL2 Domain 0-eGFP. Potentially interesting hybridomas selected from the initial screening were cloned by limiting dilution techniques in 96-wells plates. The secondary screen involved selection of hybridomas of interest by testing supernatants of the subclones by flow cytometry on HUT78, COU-L, HEK-293T/KIR3DL1 Domain 0-eGFP and HEK-293T/KIR3DL2 Domain 0-eGFP. Positive subclones were injected into mice to produce ascitis and antibodies of interest were purified before being tested in a Biacore assay using rec KIR3DL2 chips, followed by various assays formats based on binding to human KIR3DL2-expressing cells.
(In flow cytometry, cells or beads pass a laser one at a time.)

T1 sequence (P43630 22-455 E158D): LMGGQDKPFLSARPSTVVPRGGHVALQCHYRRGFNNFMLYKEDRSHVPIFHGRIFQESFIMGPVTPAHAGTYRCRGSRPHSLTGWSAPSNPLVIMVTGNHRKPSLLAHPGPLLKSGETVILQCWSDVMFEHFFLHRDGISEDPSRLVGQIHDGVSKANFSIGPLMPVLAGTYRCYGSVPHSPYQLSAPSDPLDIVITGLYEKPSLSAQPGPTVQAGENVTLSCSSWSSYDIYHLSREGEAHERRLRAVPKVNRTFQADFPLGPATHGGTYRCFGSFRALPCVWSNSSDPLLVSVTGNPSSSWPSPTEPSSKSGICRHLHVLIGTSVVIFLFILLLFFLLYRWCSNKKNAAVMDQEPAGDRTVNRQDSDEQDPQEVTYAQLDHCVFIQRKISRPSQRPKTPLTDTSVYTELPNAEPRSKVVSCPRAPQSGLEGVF
T2 sequence (P43629 22-444 limits assumed): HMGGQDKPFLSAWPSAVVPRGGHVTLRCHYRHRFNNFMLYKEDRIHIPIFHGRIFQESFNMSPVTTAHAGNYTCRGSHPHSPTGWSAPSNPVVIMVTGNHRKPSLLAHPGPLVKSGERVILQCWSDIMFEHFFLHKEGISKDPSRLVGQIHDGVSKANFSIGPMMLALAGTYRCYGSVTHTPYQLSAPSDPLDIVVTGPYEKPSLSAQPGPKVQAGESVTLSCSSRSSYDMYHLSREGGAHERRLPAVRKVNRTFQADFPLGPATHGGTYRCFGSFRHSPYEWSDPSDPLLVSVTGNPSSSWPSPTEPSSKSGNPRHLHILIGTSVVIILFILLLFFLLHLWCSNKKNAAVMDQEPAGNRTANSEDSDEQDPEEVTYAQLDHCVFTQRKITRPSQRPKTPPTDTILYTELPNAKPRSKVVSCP

B1: antibody 1C3 (antibody, V domains shown)
VH: QVQLQQSGAELARPGASVKLSCKASGYTFTSYWMQWVKQRPGQGLEWIGAIYPGDGDTRYTQKFKGKATLTADKSSSTAYMQLSSLASEDSAVYYCARRYDGYYHFDYWGQGTTLTVS
VL: DIVMTQSPSSLAVTAGEKVTMSCKSSQSLLWSVNQKNYLSWYQQKQRQPPKLLIYGASIRESWVPDRFTGSGSGTDFTLTISNVHAEDLAVYYCQHNHGSFLPLTFGSGTKLEIK
For B1, in assay [1], the binding result is recorded as “binds”.

B2: antibody 20E9 (antibody, V domains shown)
VH: QVQLQQSGAEVARPGASVKLSCKSSGFTFTTYWMQWVKQRPGQGLEWIGAIYPGDGDTRYTQKFKGKATLTADKSSITAYMQLSSLASEDSAVYYCARRGDYGNYGMDYWGQGTSVTVSS
VL: DVLMTQTPLSLPVSLGDQASISCRSSQSIVHSNGNTYLEWYLQKPGQSPKLLIYKVSNHFSGVPDRFSGSGSGTDFTLKISRVEAEDLGVYYCFQGSHVPPTFGGGTKLEIK
With B2, the binding result in assay [1] is “binds”.

B3: antibody 13H1 (antibody, V domains shown)
VH: EVQLQQSGPELVKPGASMKISCKASHYSFIGYTMNWVKQRHGKNLEWIGLINPYNGDTTYNQKFKGKASLTVDKSSSTAYMEILSLTSEDSAVYYCARENWGYPYAMDYWGQGTSVTVS
VL: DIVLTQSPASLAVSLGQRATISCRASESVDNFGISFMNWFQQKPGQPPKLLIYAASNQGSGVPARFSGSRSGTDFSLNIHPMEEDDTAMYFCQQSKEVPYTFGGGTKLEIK
Consider B3, for which, in assay [1], the binding result is “binds”.

B4: antibody 10F6 (antibody, V domains shown)
VH: QIQLVQSGPELKKPGETVRISCKASGYTFTIAGMQWVQKMPGKGLKWIGWINTHSGVPKYAEDFKGRFAFSLETSANIAYLQISNLKNEDTATYFCARGGDEGVMDYWGQGTSVTVS
VL: DIVMTQSHKFMSTSVGDRVSITCKASQDVSTAVAWYHQKPGQSPKLLIYWASTRHTGVPDRFSGSGSGTDYTLTISALQAEDLALYYCQQHYNTPWTFGGGTKLEIK
notes: Detected with goat anti-mouse antibody
Consider B4, for which the binding result in assay [1] is on record as “binds”.

B5: antibody 1E2 (antibody, V domains shown)
VH: QVQLQQSGAELVRPGVSVKISCKGSGYTFTDYAMNWVKQSHAKSLEWIGVISTYYGDANYNQKFKGKATMTVDKSSSTAYMELARLTSEDSAIYYCALIYYDYDGSYWGQGTTLTVS
VL: DVVMTQTPLSLPVSLGDQASISCRSSQSLVHSNGNTYLHWYLQKPGQSPKLLIYKVSNRFSGVPDRFSGSGSGTDFTLKISRVEAEDLGVYFCSQSTHVPPYTFGGGTKLEIK
With B5, in assay [1], the binding result is on record as “binds”.

B6: antibody 10G5 (antibody, V domains shown)
VH: QVQLQQSAAELARPGASVKMSCKASGYTFTSYTMHWVKQRPGQGLEWIGYINPSSGYTENNRKFKDKTTLTADKSSSTAYMQLSSLTSEDSAVYYCARLGKGLLPPFDYWGQGTTLTVSS
VL: DIQMTQSPASLSVSVGETVTITCRASENIYSNLAWYQQKQGKSPQLLVYAATNLADGVPSRFSGSGSGTQYSLKINSLQSEDFGSYYCQHFWGTPYTFGGGTKLEIK
For B6, in the assay with KIR3DL1 (CD158e1), the binding result is reported as “no binding”.
